Reference: paper PMC9673926, “Nucleotide binding as an allosteric regulatory mechanism for Akkermansia muciniphila β-N-acetylhexosaminidase Am2136” (Gut Microbes, 2022)
Substitutions are numbered along the chain they refer to. In names and notes the source's numbering stands.

Tests used:
Am2136 WT [1] = target: T1, Am2136 WT (Akkermansia muciniphila, UniProt B2UPR7); test: Nucleotide binding affinity by intrinsic fluorescence; settings: Am2136 WT; fluorescence ex 286 nm/em 336 nm
T1 construct: The coding region (residue Q20-L756) of Am2136 without signal peptide was based on UniProt; 6XHis (N); made in house; host or cells: E. coli BL21 (DE3)
Description: The nucleotide binding ability was determined on Fluorescence Spectrometer Duetta (HORIBA) by measuring the change of peak intensity. The fluorescence was excited at 286 nm and emitted at 336 nm. And the measurement was processed under 400 V voltage with 2.5 nm excitation slit and 5 nm emission slit. […] The sample was incubated at 4°C for 5 min before testing.

Am2136 WT [2] = target: T1, Am2136 WT; test: Enzyme activity assay (pNP-β-GlcNAc hydrolysis) regulated by nucleotides; type: biochemical; settings: WT; 1 mM nucleotide; substrate pNP-β-GlcNAc; 37°C
Am2136 = target: T2, Am2136 (Akkermansia muciniphila, UniProt B2UPR7); test: Oligosaccharide hydrolysis, released GlcNAc by HPLC-QqQ-MS; type: biochemical; settings: 1.2 mM substrate, 4 μM Am2136, 37°C, 240 min
T2 construct: The coding region (residue Q20-L756) of Am2136 without signal peptide was based on UniProt; 6XHis (N); made in house; host or cells: E. coli BL21 (DE3)
Description: The 30 μL reaction mixture contains 1.2 mM oligosaccharides (Sigma), 4 μM proteins, 150 mM NH4Ac pH 8.0. The qualitative and quantitative analyses were performed by high-performance liquid chromatography-tandem triple quadrupole mass spectrometry (HPLC-QqQ-MS) (Agilent 1260 HPLC system and 6460 QqQ system, Agilent Technologies, USA). The separation was performed on a Chromplus C18 column (4.6 × 250 mm, 5 μm) at 25°C. The samples were isocratic eluted with 0.1% formic acid in water and acetonitrile (80:20, v/v) at a flow rate of 0.5 mL/min with an injection volume of 5 μL. The mass spectrometer was operated in the electron spray ionization mode with drying gas temperature of 300°C, N2 gas flow at 11 L/min, nebulizer pressure of 15 psi, and capillary voltage of 4000 V.
Qualitative analysis was carried out by MS2 full-scan mode, while quantitative analysis was performed by multiple reaction monitoring (MRM) in positive ionization mode. Amygdalin (IS) was used as internal standard, and the sample was prepared by adding 20 μL internal standard (116.96 μM) and 170 μL water to 10 μL reaction mixture. The ion transitions were chosen as m/z 222.0→203.9 for GlcNAc and m/z 458.1→296.0 for IS. The fragmentor voltage values of GlcNAc and IS were set to 70 and 130 V, respectively. The collision energies of GlcNAc and IS were set to 1 and 10 eV, respectively. The signal acquisition and peak integration were performed using the MassHunter Qualitative Analysis Software (Agilent, USA). The concentration of GlcNAc in each sample was determined by using the established calibration curve (y = 0.768x + 2.4873) made from the standard compound.

[3] = substrate: CC(=O)N[C@H]1[C@H](Oc2ccc([N+](=O)[O-])cc2)O[C@H](CO)[C@@H](O)[C@@H]1O; test: Release of 4-nitrophenolate from pNP-β-GlcNAc (0.125-4 mM) followed at 405 nm for 5 min with 2 μM enzyme in 25 mM Tris pH 8.0, 150 mM NaCl at 37 °C, no nucleotide.; type: biochemical
Excerpt: All experiments were repeated three times.

[4] = substrate: CC(=O)N[C@H]1[C@H](Oc2ccc([N+](=O)[O-])cc2)O[C@H](CO)[C@@H](O)[C@@H]1O; test: purified protein, by the assay type; settings: pH 8.0

## Nc1ncnc2c1ncn2[C@@H]1O[C@H](COP(=O)(O)OP(=O)(O)O)[C@@H](O)[C@H]1O [ADP]
Am2136 WT [1]
  Kd: 255 ± 4.98 µM
Am2136 WT [2]
  Vmax: 422 ± 6 µmol/min

## Nc1ncnc2c1ncn2[C@@H]1O[C@H](COP(=O)(O)OP(=O)(O)OP(=O)(O)O)[C@@H](O)[C@H]1O [ATP]
Am2136 WT [1]
  Kd: 245 ± 5.99 µM
Am2136 WT [2]
  Vmax: 442 ± 9 µmol/min

## Nc1ccn([C@@H]2O[C@H](COP(=O)(O)OP(=O)(O)O)[C@@H](O)[C@H]2O)c(=O)n1 [CDP]
Am2136 WT [1]
  Kd: 157 ± 3.89 µM
Am2136 WT [2]
  Vmax: 435 ± 6 µmol/min

## Nc1ccn([C@@H]2O[C@H](COP(=O)(O)OP(=O)(O)OP(=O)(O)O)[C@@H](O)[C@H]2O)c(=O)n1 [CTP]
Am2136 WT [1]
  Kd: 167 ± 5.91 µM
Am2136 WT [2]
  Vmax: 436 ± 7 µmol/min

## Nc1nc2c(ncn2[C@@H]2O[C@H](COP(=O)(O)OP(=O)(O)OP(=O)(O)O)[C@@H](O)[C@H]2O)c(=O)[nH]1 [GTP]
Am2136 WT [1]
  Kd: 123 ± 3.76 µM
Am2136 WT [2]
  Vmax: 449 ± 7 µmol/min

## CC(=O)N[C@H]1[C@H](O[C@@H]2C(O)O[C@H](CO)[C@@H](O)[C@@H]2O)O[C@H](CO)[C@@H](O)[C@@H]1O (stereo partly drawn) [GlcNAc-(β1,2)Man]
Am2136; with 1 mM GDP
  GlcNAc released: 851.33 µM
Am2136; without GDP
  GlcNAc released: 671 µM

## O=c1ccn([C@@H]2O[C@H](COP(=O)(O)OP(=O)(O)O)[C@@H](O)[C@H]2O)c(=O)[nH]1 [UDP]
Am2136 WT [1]
  Kd: 179 ± 7.71 µM
Am2136 WT [2]
  Vmax: 429 ± 9 µmol/min

## O=c1ccn([C@@H]2O[C@H](COP(=O)(O)OP(=O)(O)OP(=O)(O)O)[C@@H](O)[C@H]2O)c(=O)[nH]1 [UTP]
Am2136 WT [1]
  Kd: 199 ± 3.66 µM
Am2136 WT [2]
  Vmax: 439 ± 7 µmol/min

B1: Δ D717-K727 (Akkermansia muciniphila ATCC BAA-835; DEL717-727) (protein)
chain: QDAKQIADSLSIPPVKAGAKQLPMPSVSGAQIKLLGADYEQLVNSKGKIAPVISDTPVNVSFKVTKDGKEAVSKDYEIMLQAPQAAQGNPKPRIIPEILQWKGGQGEYKLGNTVTIACPDKELGKLFAADMEDVLGKKVKLVAPGAKADISLSLLKGGNLGREGYRLQIARDGVRLGAAAPTGLFWGTRTLLQMLRQTPGSVPCGTAVDFPRYQLRGFMLDVARTPYPLSYLKDVIRTMAWYKMNDLHLVINNNYIFHEHYVDNGHDPFKESYAAFRLESKMKGKDGTPLTARDLFYTKKEFADLVSYARKYGVNIVPEFDTPGHALSFTRLRPDLIYKGPMNHEKRRCEMLDAANPETIDLVSKVFDEYMLKDPKLGRPVFADCGVVHVGADEFYGDKEDYRHFANAVLTHALKRGYTPRIWGSLSAKPGKTPVVSKGVQMNLWSTGWMKAWEAVNQGYDVINTNDGALYIVPFAGYYRMDRNHKGLYNNWIPNRIGNETLPSGHPQLLGGTFAVWNDETDIMHTGYAPYDIWGIISGSMDVLSQKLWGTAKAPDTFEQHRELVSSIGNAPRTNPLHKWKDSQPLTVKPSSLPQKLDKPALGPNYRLTMELELTAAPEGKEQVLLAAPEGELLAVMKDGTVGFRRDDSLEFSFGAKLPVGKKVKVEIVGEPEKTSLLLDGEPAGTAVLKNFSDKSKVHRSTFILPLKELGSSFQGKVFHMNVQPL
notes: residues Q20-L756 without signal peptide, N-terminal 6xHis-tag; loop D717-K727 deleted
[3]
  Km: 6560 ± 410 µM
  Vmax: 144 µmol/min
  kcat/Km: 11000 ± 1000 M⁻¹ s⁻¹

B2: Am2136 WT (Akkermansia muciniphila ATCC BAA-835) (protein)
chain: QDAKQIADSLSIPPVKAGAKQLPMPSVSGAQIKLLGADYEQLVNSKGKIAPVISDTPVNVSFKVTKDGKEAVSKDYEIMLQAPQAAQGNPKPRIIPEILQWKGGQGEYKLGNTVTIACPDKELGKLFAADMEDVLGKKVKLVAPGAKADISLSLLKGGNLGREGYRLQIARDGVRLGAAAPTGLFWGTRTLLQMLRQTPGSVPCGTAVDFPRYQLRGFMLDVARTPYPLSYLKDVIRTMAWYKMNDLHLVINNNYIFHEHYVDNGHDPFKESYAAFRLESKMKGKDGTPLTARDLFYTKKEFADLVSYARKYGVNIVPEFDTPGHALSFTRLRPDLIYKGPMNHEKRRCEMLDAANPETIDLVSKVFDEYMLKDPKLGRPVFADCGVVHVGADEFYGDKEDYRHFANAVLTHALKRGYTPRIWGSLSAKPGKTPVVSKGVQMNLWSTGWMKAWEAVNQGYDVINTNDGALYIVPFAGYYRMDRNHKGLYNNWIPNRIGNETLPSGHPQLLGGTFAVWNDETDIMHTGYAPYDIWGIISGSMDVLSQKLWGTAKAPDTFEQHRELVSSIGNAPRTNPLHKWKDSQPLTVKPSSLPQKLDKPALGPNYRLTMELELTAAPEGKEQVLLAAPEGELLAVMKDGTVGFRRDDSLEFSFGAKLPVGKKVKVEIVGEPEKTSLLLDGEPAGTAVLKNFSDKSKDFSDKFKHRPKVHRSTFILPLKELGSSFQGKVFHMNVQPL
[4]
  Km: 1530 ± 80 µM
[4]; 37.0 °C
  Km: 1460 ± 50 µM

B3: R592A (Akkermansia muciniphila ATCC BAA-835; R592A) (protein)
chain: B2 chain with R573A
[4]; 37.0 °C
  Km: 1480 ± 60 µM

B4: T545A+G546A (Akkermansia muciniphila ATCC BAA-835; G546A/T545A) (protein)
chain: B2 chain with T526A, G527A
notes: residues Q20-L756 without signal peptide, N-terminal 6xHis-tag
[3]
  Km: 3660 ± 690 µM
  Vmax: 264 µmol/min
  kcat/Km: 36000 ± 5000 M⁻¹ s⁻¹

B5: Y415A (Akkermansia muciniphila ATCC BAA-835; Y415A) (protein)
chain: B2 chain with Y396A
notes: as for B4
[3]
  Km: 2320 ± 80 µM
  Vmax: 399 µmol/min
  kcat/Km: 86000 ± 1000 M⁻¹ s⁻¹

B6: Y327F+Y331F (Akkermansia muciniphila ATCC BAA-835; Y327F/Y331F) (protein)
chain: B2 chain with Y308F, Y312F
[4]; 37.0 °C
  Km: 1420 ± 60 µM

B7: R256A (Akkermansia muciniphila ATCC BAA-835; R256A) (protein)
chain: B2 chain with R237A
[4]; 37.0 °C
  Km: 1490 ± 60 µM

B8: D57A+E59A+Q60A (Akkermansia muciniphila ATCC BAA-835; D57A/E59A/Q60A) (protein)
chain: B2 chain with D38A, E40A, Q41A
notes: as for B4
[3]
  Km: 1410 ± 60 µM
  Vmax: 432 µmol/min
  kcat/Km: 153000 ± 3000 M⁻¹ s⁻¹

B9: E649A (Akkermansia muciniphila ATCC BAA-835; E649A) (protein)
chain: B2 chain with E630A
[4]; 37.0 °C
  Km: 1450 ± 90 µM

B10: Y550A (Akkermansia muciniphila ATCC BAA-835; Y550A) (protein)
chain: B2 chain with Y531A
[4]; 37.0 °C
  Km: 1520 ± 40 µM

B11: P595A+H597A (Akkermansia muciniphila ATCC BAA-835; H597A/P595A) (protein)
chain: B2 chain with P576A, H578A
[4]; 37.0 °C
  Km: 1580 ± 70 µM
